B1: APE-1::GFP::3xflag (endogenous APE-1 tagged with 3xflag and GFP) [C. elegans] / HaloTag::GSP-2 (endogenously HaloTagged GSP-2 labeled with JF646) [modified: far-red dye JF646 on the HaloTag; far-red dye JF646 on the HaloTag] … (parent)
chain 1: MVTTSSGGGIGYPANNGVTQVSLIHSSDSVRTVSTAPIYRPTSSMASTMAHKSSTAPFISANQRMSKPPVRVVAQPPPPHPQALSQQYHQQNPMMMYSAPNTRPHVIPTMQVQPTMAAQIKRNNPVNAQFQNPSEMIADYGVKPQSVEMVQRVRAVRRQVADEETELRRLRELEHETAQLQNKNYGRERELNVQGSMLKEAQLELRNASMRAQSLNKHLEEMYRRRQTAAAAALVEQRKMQQHQILLARAANQVSTQEVIRPRASVEPFQVNNTQQQQPSPQMMKSEEFSEKRDLNGQTGSYDAIDGSGDHQKIPTEPSYLAPCKENQQKYSELSKMASTDPHSNHSSPSTSSQKAPTLITFSPPSFEQKINSSTMTRDSPFVERPTSFGDSLDESRLRSGKTDLVSLRSDSLKATKRRSWAASEGTSMSEAEMIHRLLDEQRRGRSHFIPQLPTSQEEPSAITSETYAEEVVNSESKQVATSSDSTNNLELPTEQMVLGSDTTTEEDASSCSTRSDDGQNLEMEVAIERRTVKGILRRPNEKMNKGRIEFDPLALLLDAALEGELDLVRSSASKLTDVSQANDEGITALHNAICAGHYEIVRFLIENDADVNAQDSDGWTPLHCAASCNNLPMVRQLVEGGGCVLASTLSDMETPVEKCEEDEDGYDGCLKYLSAAHNSTGSINTGKVYAAYGYEAAFEDELSFDAGDELTVIEKDKVDKNWWTCEKNNGEKGQVPRTYLALYPSLKYRKKLNFVMFDLPLESNNNVE
chain 2: MDVEKLNLDNIISRLLEVRGSKPGKNVQLTESEIKGLCQKSREIFLSQPILLELEAPLKICGDVHGQYYDLLRLFEYGGFPPESNYLFLGDYVDRGKQSLETICLLLAYKIKYPENFFLLRGNHECASINRIYGFYDECKRRYNIKLWKTFTDCFNCLPVAAIIDEKIFCCHGGLSPDLQSMEQIRRIMRPTDVPDQGLLCDLLWSDPDKDVTGWGENDRGVSFTFGPEVVAKFLHKHDLDLICRAHQVVEDGYEFFAKRQLVTLFSAPNYCGEFDNAGSMMTVDETLMCSFQILKPADKKKYPYGAGGVGSNRPVTPPRNAPAAQPKKGAKK

Variants of: B1
Experiment: single molecule photobleaching analysis (TIRF microscopy) on anti-flag functionalized coverslips
Details: with HaloTag::GSP-2 (endogenously HaloTagged GSP-2 labeled with JF646) [modified: far-red dye JF646 on the HaloTag, whole worm lysates, HaloTag::GSP-2 labeled with JF646, p=0.531 vs APE-1, read off a plot

screen value [%] | Variant
38 | chain 1 H591Y

Same assay, conditions: with HaloTag::GSP-2 (endogenously HaloTagged GSP-2 labeled with JF646) [modified: far-red dye JF646 on the HaloTag, whole worm lysates, HaloTag::GSP-2 labeled with JF646, p = 0.008 vs APE-1, read off a plot

screen value [%] | Variant
34 | chain 1 N583K

From publication doi:10.1101/2025.05.16.654433
